From US9187553 come the findings set out here.

In the experiment the target is recombinant human FceRIa D2/D1 subunit (human) (UniProt P12319). The experiment is described as follows: ELISA, IgE captured by His-tagged receptor on Ni-treated plate. (In general: ELISA stands for enzyme-linked immunosorbent assay.)
UniProt P12319, sequence (P12319 26-205): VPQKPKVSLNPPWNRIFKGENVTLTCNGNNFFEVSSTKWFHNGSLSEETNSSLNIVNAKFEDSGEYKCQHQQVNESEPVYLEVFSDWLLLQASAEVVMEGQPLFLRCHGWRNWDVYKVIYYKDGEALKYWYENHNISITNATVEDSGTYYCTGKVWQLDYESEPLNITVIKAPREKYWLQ

For human myeloma IgE (BED) (antibody), the OD signal at 50 ng/ml came out at 1.2 OD.
